Here are results for one molecule from patent US20250163149A1, “ANTI-RAGE ANTIBODY” (Swansea University, priority 2022, published 2025).

In one assay the target is RAGE (Homo sapiens, UniProt Q15109). Kind of assay: Binding target blocking assay by immunofluorescence on HEC-1A cells. In kind it is cell-based. Set-up: endogenous in cells; host or cells: HEC-1A (ECACC). The note with it: then antibody at 4 μg/ml. The protocol:
To proof that HA9 shares similar binding epitope as other α-RAGE antibodies, an immunofluorescence approach was used. For this purpose, 1.5×10^4 HEC1A cells/well (obtained from the European Collection of Authenticated Cell Cultures, ECACC, Public Health England, UK) were seeded in 8-well chamber slides (Ibidi) in 300 μl of stripped medium and cultured for 24 h in a humidified, 5% CO2 in air atmosphere incubator at 37° C. After culture, cells were fixed with 4% paraformaldehyde (Sigma) for 20 minutes, permeabilized with 0.1% Triton X-100 (Sigma) for 10 minutes at 4° C. and blocked with 3% BSA in PBS for 1 h. Cells were then pre-incubated with a primary antibody against RAGE at a concentration in excess (20 μg/ml in 3% BSA in PBS for 1 h) to block the specific epitope they bind, before cells were incubated with the α-RAGE antibody of interest at 4 μg/ml in 3% BSA-PBS overnight at 4° C. This was followed by 1 h incubation with Alexa-fluorophore-conjugated secondary antibodies. Cells were washed with PBS extensively between all steps, counterstained before imaging with Hoechst (Life Technologies™) and imaged using a LSM710 confocal fluorescence microscopy system (Zeiss, UK). The mean intensity of fluorescence was obtained using imageJ by measuring the integrated density per imaged field, normalised by the number of cells in the respective field and obtaining the mean from >10 fields obtained per condition. A decrease in fluorescence in the pre-blocked condition compared with the not-pre-blocked condition means both antibodies share similar epitope of binding on the same protein.

The subject of the next assay is SKOV3 cells. Kind of assay: Internalisation assay on SKOV3 cells. The following applies: for uptake (internalisation), secondary antibody detection: 4 h or 24 h at 37° C. The assay is classed as cell-based, human. The protocol: To screen internalization capacity and traffic to lysosomes of α-RAGE antibodies, all the primary antibodies used in the screening were conjugated to pHAb Amine Reactive Dye following manufacturer's instructions (Promega, UK, Cat. No. G983). This type of dye emits fluorescence when traffics to acidic environments (late endosome and lysosome). For this purpose, 1.5×10^4 SKOV3 cells/well were seeded in 8-well chamber slides (Ibidi) in 300 μl of stripped medium and cultured for 24 h in a humidified, 5% CO2 in air atmosphere incubator at 37° C. After culture, cells were washed in pre-warmed (37° C.) Dulbecco's phosphate buffered saline (DPBS) and slides placed on ice. Cells were treated with control medium or medium containing one of the α-RAGE antibodies conjugated to pH-dye at 10 μg/ml, and the 8-well chamber slides were incubated on ice for 30 minutes. Slides were then transferred to the incubator at 37° C. for 4 h or 24 h. After internalization time, cells were washed in DPBS, fixed in 4% paraformaldehyde for 20 min and permeabilized with 0.1% Triton X-100 (Sigma) for 10 minutes at 4° C. Cells were washed with PBS extensively between all steps, counterstained before imaging with Hoechst (Life Technologies™) and imaged using a LSM710 confocal fluorescence microscopy system (Zeiss, UK). Unconjugated α-RAGE antibodies were also used in the internalisation assay. In this case were visualized using Alexa-fluorophore secondary antibodies as described in the immunofluorescence method.

Chain of RAGE (Q15109 23-404): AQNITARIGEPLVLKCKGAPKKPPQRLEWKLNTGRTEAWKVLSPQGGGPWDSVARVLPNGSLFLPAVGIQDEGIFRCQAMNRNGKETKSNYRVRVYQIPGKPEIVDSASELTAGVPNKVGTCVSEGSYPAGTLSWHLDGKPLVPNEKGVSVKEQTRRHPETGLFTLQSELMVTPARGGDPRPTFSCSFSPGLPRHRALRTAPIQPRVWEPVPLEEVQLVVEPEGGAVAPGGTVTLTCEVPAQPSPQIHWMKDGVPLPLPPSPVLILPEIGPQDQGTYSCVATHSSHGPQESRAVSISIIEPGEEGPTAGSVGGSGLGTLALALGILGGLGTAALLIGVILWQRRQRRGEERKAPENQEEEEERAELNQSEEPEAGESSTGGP

B1: hHA9: chimeric humanised format of anti-RAGE antibody clone HA9 (antibody, V domains shown)
VH: EVKLVETGGGLVQPGRPMKLSCVASGFTLSDHWMNWVRQSPEKGLEWVAQIRNRPYKFEKYYSDSVKGRFTISRDDSKNSVYLQMNNLRAEDMGIYYCSSYRYGLAYWGQGTLVTVST
VL: DNLLTQSPAILSVSPGERVSFSCRASQTIDTRIHWYQQRKNGSPRLLIRYISESLSGIPSRFSGSGSGTEFTLTINSVESEDIADYYCQQTESWPITFGSGTKLEIK
For the molecule B1, the “staining after Abcam antibody pre-blocking” value with RAGE (Abcam antibody 20 μg/ml pre-incubation) is “did not result in a decrease”. The “staining after N16 pre-blocking” value with RAGE (N16 20 μg/ml pre-incubation) is on record as “statistically significant decrease”. Besides, the “uptake (internalisation), secondary antibody detection” value is “highest uptake” with SKOV3 cells (compared with other clones and AB11451, listed as chimeric HA9); “better uptake” with SKOV3 cells (compared with other clones and AB11451, listed as chimeric-HA9). Besides, in the assay with SKOV3 cells (pHAb dye conjugate 10 μg/ml, 4 h or 24 h), the “uptake of pH-dye conjugated antibody” value was “highest uptake and traffics efficiently to acidic endosomes”.
